Source: patent US20220135679A1 (GREEN CROSS, published 2022)

Molecular target: T1, recombinant human GPNMB (human, UniProt Q14956 23-498)
T1 construct: also called GPNMB purified from HEK293 cells; GPNMB antigen
T1 sequence: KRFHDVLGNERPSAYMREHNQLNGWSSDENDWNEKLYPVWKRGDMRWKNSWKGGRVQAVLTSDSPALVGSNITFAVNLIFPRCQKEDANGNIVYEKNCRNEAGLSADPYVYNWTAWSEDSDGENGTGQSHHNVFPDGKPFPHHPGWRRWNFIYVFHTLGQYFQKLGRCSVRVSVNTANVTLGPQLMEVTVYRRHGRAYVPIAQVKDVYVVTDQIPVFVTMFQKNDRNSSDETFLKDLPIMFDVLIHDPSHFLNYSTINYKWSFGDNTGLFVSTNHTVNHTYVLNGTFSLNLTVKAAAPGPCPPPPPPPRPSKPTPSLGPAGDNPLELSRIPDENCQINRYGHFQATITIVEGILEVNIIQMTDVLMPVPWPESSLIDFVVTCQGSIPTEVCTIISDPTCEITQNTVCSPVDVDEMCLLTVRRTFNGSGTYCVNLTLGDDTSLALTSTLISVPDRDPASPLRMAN
Test: SPR, Biacore T-200; GPNMB amine-coupled on CM5 chip, bispecific antibody as analyte at 0.078 to 5 nM
Procedure: Quantitative binding capacity (affinity) of the purified bispecific antibody to recombinant human GPNMB was measured using Biacore T-200 (GE Healthcare, USA) that is a biosensor. GPNMB purified from HEK293 cells was fixed on a CM5 chip (GE Healthcare) using an amine-carboxyl reaction until 200 Rmax was obtained. Next, the GPNMB/CD3 bispecific antibody, which was serially diluted in HBS-EP buffer (10 mM HEPES, pH 7.4, 150 mM NaCl, 3 mM EDTA, 0.005% Surfactant P20), was allowed to bind thereto in a concentration range of 0.078 nM to 5 nM for 120 seconds, and flowed at a flow rate of 30 μL/min for 1800 seconds so that dissociation was achieved. Dissociation of the antibody bound to GPNMB was induced by flowing 10 mM glycine-HCl (pH 1.5) for 30 seconds at a flow rate of 30 μL/min (Table 2). The affinity was obtained as kinetic rate constants (Kₒₙ and Koff) and equilibrium dissociation constant (KD) using Biacore T-200 Evaluation Software (Table 3).

B1: GPNMB (SEQ ID NO: 35)/A15 (SEQ ID NO: 36) bispecific antibody (bispecific antibody, human IgG1, lambda, L234A L235A)
chain 1: not shown
chain 2: QAVVTQEPSLTVSPGGTVTLTCRSSTGAVTTSNYANWVQQKPGQAPRGLIGGTNKRAPWTPARFSGSLLGGKAALTLSGAQPEDEAEYYCALWYSNLWVFGGGTKLTVLGQPKANPTVTLFPPSSEELQANKATLVCLISDFYPGAVTVAWKADGSPVKAGVETTKPSKQSNNKYAASSYLSLTPEQWKSHRSYSCQVTHEGSTVEKTVAPTECSGGGSGGGSEGGGSEGGGSEGGGSEGGGSGGGSGEVQLVESGGGLVQPGGSLKLSCAASGFTFNTYAMNWVRQASGKGLEWVGRIRSKYNNYATYYADSVKDRFTISRDDSKNTAYLQMNSLKTEDTAVYYCVRHGNFGNSYVSWFAYWGQGTLVTVSSASTKGPSVFPLAPSSKSTSGGTAALGCLVKDYFPEPVTVSWNSGALTSGVHTFPAVLQSSGLYSLSSVVTVPSSSLGTQTYICNVNHKPSNTKVDKKVEPKSCDKTHTCPPCPAPEAAGGPSVFLFPPKPKDTLMISRTPEVTCVVVDVSHEDPEVKFNWYVDGVEVHNAKTKPREEQYNSTYRVVSVLTVLHQDWLNGKEYKCKVSNKALPAPIEKTISKAKGQPREPRVYTLPPCRDELTKNQVSLTCLVKGFYPSDIAVEWESNGQPENNYKTTPPVLVSDGSFTLYSKLTVDKSRWQQGNVFSCSVMHEALHNHYTQKSLSLSPG
notes: Expressed in Expi293F cells, then purified by Protein A and size exclusion; also called anti-GPNMB/anti-CD3 bispecific antibody; GPNMB/CD3 bispecific antibody
Q: Which Kd does the source give for B1 here?
A: The Kd was 1.1 nM.
